{
  "source": "patent US20030180295A1",
  "about": "“Angiocidin: a Cys-Ser-Val-Thr-Cys-Gly specific tumor cell adhesion receptor” (Philadelphia Health and Education Corporation, priority 1999, published 2003)",
  "molecules": {"B1": {"name": "amino terminal fragment Met1-Lys132: amino terminal fragment Met1-Lys132 of angiocidin (SEQ ID NO: 24) (protein, listed as Homo sapiens)", "chain": "MVLESTMVCVDNSEYMRNGDFLPTRLQAQQDAVNIVCHSKTRSNPENNVGLITLANDCEVLTTLTPDTGRILSKLHTVQPKGKITFCTGIRVAHLALKHRQGKNHKMRIIAFVGSPVEDNEKDLVKLAKRLK"}},
  "key": {"[1]": {"system": "Bovine aortic endothelial cells (BAEC)", "experiment": "ALAMAR BLUE cell viability assay", "type": "cell-based", "procedure": "Bovine aortic endothelial cells (BAEC), human umbilical vein endothelial cells (HUVEC), fibroblast cells, A549 human lung carcinoma cells (A549), MDA-MB231 human breast carcinoma cells (MB231), MCF7 human breast carcinoma cells (MCF7) were treated with 37 μg/ml of receptor, or buffer alone, for 24 hours. Viability of the cells was measured using the ALAMAR BLUE™ assay, which measures the capacity of cells to metabolize the ALAMAR BLUE™ dye. The ALAMAR BLUE™ assay (available from Biosource International, Camarillo, Calif.) quantitatively measures the proliferation of cell lines and can establish the relative cytotoxicity of chemical agents. […] Data can be collected using either fluorescence-based instrumentation (530-560 nm excitation wavelength and 590 nm emission wavelength) or absorbance-based instrumentation (570 nm and 600 nm).\nBAEC and BSM cells were treated with increasing concentrations of angiocidin (0, 0.625, 1.25, 2.5, 5, 15, 26 and 37 μg/ml) for 24 hours. Cell viability was measured using the ALAMAR BLUE Tm assay. […]\nBovine aortic endothelial cells (BAEC) were cultured overnight in serum-free media containing either 37 μg/ml his-tagged angiocidin or his-tagged GST. […] Viability was measured by the ALAMAR BLUE™ assay. […]\nThe endothelial cells (BAEC) were incubated overnight 37 μg/ml of the angiocidin, fragments, and GST. Viability was measured using the ALAMAR BLUE™ assay."}, "TSP-1": {"molecular_target": "TSP-1 (Homo sapiens, UniProt P07996)", "sequence (P07996 19-1170)": "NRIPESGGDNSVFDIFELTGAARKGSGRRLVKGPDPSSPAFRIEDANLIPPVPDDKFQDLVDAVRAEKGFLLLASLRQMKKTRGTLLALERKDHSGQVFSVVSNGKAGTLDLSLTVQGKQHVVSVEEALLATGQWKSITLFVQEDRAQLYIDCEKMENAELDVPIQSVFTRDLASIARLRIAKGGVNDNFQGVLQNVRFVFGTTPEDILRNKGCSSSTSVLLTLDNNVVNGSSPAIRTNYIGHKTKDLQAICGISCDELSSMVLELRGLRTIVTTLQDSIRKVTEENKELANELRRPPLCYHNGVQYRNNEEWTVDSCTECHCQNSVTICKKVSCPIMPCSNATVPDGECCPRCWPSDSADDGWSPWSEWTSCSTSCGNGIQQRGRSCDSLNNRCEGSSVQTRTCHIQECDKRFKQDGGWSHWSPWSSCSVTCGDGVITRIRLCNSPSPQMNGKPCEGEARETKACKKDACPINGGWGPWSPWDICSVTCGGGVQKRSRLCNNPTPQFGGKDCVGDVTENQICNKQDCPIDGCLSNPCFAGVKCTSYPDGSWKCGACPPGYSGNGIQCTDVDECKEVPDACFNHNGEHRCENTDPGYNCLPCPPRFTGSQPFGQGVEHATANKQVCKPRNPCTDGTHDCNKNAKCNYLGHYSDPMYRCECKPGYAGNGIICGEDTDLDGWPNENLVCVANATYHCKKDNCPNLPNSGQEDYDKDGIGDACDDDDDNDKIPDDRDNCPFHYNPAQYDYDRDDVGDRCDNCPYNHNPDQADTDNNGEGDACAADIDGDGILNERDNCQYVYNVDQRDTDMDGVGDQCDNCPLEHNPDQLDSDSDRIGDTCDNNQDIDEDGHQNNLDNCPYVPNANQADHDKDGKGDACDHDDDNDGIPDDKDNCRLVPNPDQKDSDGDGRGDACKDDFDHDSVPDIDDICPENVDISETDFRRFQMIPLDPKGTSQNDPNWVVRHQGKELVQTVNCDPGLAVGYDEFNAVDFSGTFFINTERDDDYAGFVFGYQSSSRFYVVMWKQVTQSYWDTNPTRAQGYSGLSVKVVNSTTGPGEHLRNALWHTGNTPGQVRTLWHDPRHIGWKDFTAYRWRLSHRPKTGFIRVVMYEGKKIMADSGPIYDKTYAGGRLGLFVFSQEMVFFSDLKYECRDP", "experiment": "Optical binding of angiocidin fragments to TSP-1 derivatized cuvette", "conditions": "test proteins at 10 nm in PBS buffer", "procedure": "This study examines the amino terminal (Met1-Lys132) and carboxy terminal (IIe248-Lys380) portions of angiocidin (SEQ ID NOS: 24 and 25, respectively). The binding of undenatured recombinant angiocidin fragments was compared to full length angiocidin. GST was used as a negative control. Binding was evaluated using an optical binding method that uses a cuvette to which TSP-1 is covalently coupled. A laser beam was used to detect whether the test protein (fragments, angiocidin, or GST) is bound to the TSP-1 derivatized cuvette surface. The cuvette was derivatized with 1 μg of TSP-1. The cuvette surfaces were blocked with a 1% BSA solution to prevent nonspecific binding. The test proteins were added at a concentration of […] in a PBS buffer."}},
  "data": [
    {"molecule": "B1", "values": [
      {"measurement": "anti-endothelial activity compared to angiocidin", "setting": "[1]; 37 μg/ml, overnight", "result": "has the same anti-endothelial activity as the full length angiocidin"},
      {"measurement": "cell viability, angiocidin and fragments", "setting": "[1]; Example 27, FIG. 34", "result": "inhibited cell viability"},
      {"measurement": "binding to TSP-1 derivatized cuvette", "setting": "TSP-1", "result": "show very similar binding at the nano molar range"}
    ]}
  ]
}
